Numbering of substitutions follows the chain as printed.
T1: human IP-10 (human, UniProt P02778 22-98)
T1 construct: The HDX-MS text says 'recombinant full length human IP-10'; An IP10 dimer was placed in the crystal structure; also called huIP-10; CXCL10
T1 sequence: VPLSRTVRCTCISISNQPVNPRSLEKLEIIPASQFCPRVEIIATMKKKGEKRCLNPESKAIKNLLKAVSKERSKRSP

T2: mouse IP-10 (mouse, UniProt P17515 22-98)
T2 sequence: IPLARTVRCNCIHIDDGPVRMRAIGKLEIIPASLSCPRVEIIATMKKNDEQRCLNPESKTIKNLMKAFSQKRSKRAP

T3: human MIG (human, UniProt Q07325 23-125)
T3 construct: also called monokine induced by gamma interferon; CXCL9
T3 sequence: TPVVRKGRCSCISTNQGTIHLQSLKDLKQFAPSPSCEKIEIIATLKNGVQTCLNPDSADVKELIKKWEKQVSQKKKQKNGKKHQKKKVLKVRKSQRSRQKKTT

T4: cynomolgus monkey IP-10 (cynomolgus monkey, UniProt A0A2K5WKN6 22-98)
T4 construct: endogenous serum IP-10 in the monkey studies; also called cynoIP-10; cyno IP10
T4 sequence: T1 sequence with V1I, A32P, R38H

T5: human ITAC (human, UniProt O14625 22-94)
T5 construct: also called interferon-inducible T cell alpha chemoattractant; CXCL11
T5 sequence: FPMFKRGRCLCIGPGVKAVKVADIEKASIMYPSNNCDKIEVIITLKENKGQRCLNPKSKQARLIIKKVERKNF

B1: IP10.44 (antibody, human IgG1, kappa, V domains shown)
VH: QVQLVESGGGVVQPGRSLRLSCAASGFTFSEYGMHWVRQAPGKGLEWVAVIGFAGLIKGYADSVKGRFTISRDNSKNTLYLQMNSLRAEDTAVYYCAREGAGSNIYYYYGMDVWGQGTTVTVSS
VL: not shown
notes: Human IgG1 full-length antibody; also called BMS-986184; IP10.44-g1f
B2: IP10.46 (antibody, human IgG1, kappa, V domains shown)
VH: B1 VH with A23T, E31Q, G52S, F53Y, A54G, L56D, G59Y, A101E
VL: not shown
notes: IgG1 full-length variant of IP10.1; also called IP10.46-g1f
B3: IP10.49 (antibody, human IgG1, kappa, V domains shown)
VH: B1 VH with A23T, E31Q, Y32S, A54G, G59S, A101D, N104G
VL: not shown
notes: IgG1 full-length variant of IP10.1; also called IP10.49-g1f
B4: IP10.45 (antibody, human IgG1, kappa, V domains shown)
VH: B1 VH with A23T, E31K, Y32H, L56V, G59S, A101E, Y107F
VL: not shown
notes: IgG1 full-length variant of IP10.1; also called IP10.45-g1f
B5: IP10.47 (antibody, human IgG1, kappa, V domains shown)
VH: B1 VH with E31T, Y32H, A54G, G59S, A101D, N104S, I105L, Y107F
VL: not shown
notes: IgG1 full-length variant of IP10.1; also called IP10.47-g1f
B6: IP10.48 (antibody, human IgG1, kappa, V domains shown)
VH: B1 VH with E31N, G52D, L56I, I57N, G59Y, A101E, Y107F, Y108F
VL: not shown
notes: IgG1 full-length variant of IP10.1; also called IP10.48-g1f
B7: IP10.43 (antibody, human IgG1, kappa, V domains shown)
VH: B1 VH with A23T, E31S, G52D, A54V, L56D, I57T, G59Y, A61T
VL: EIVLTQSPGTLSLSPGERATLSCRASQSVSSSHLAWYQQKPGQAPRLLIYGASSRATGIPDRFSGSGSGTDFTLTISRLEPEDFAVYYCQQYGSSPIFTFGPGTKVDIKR
notes: IgG1 full-length variant of IP10.1
B8: IP10.53 (antibody, human IgG1, kappa, V domains shown)
VH: B1 VH with E31D, G52S, F53H, A54N, L56A, A101D
VL: not shown
notes: IgG1 full-length variant of IP10.1; also called IP10.53-g1f
B9: IP10.51 (antibody, human IgG1, kappa, V domains shown)
VH: B1 VH with A23T, E31D, F53Y, A54G, N104S
VL: not shown
notes: IgG1 full-length variant of IP10.1; also called IP10.51-g1f
B10: IP10.54 (antibody, human IgG1, kappa, V domains shown)
VH: B1 VH with A23T, E31Q, G52S, F53Y, A54G, L56D, G59Y, Q82E, V93I, A101E
VL: not shown
notes: IgG1 full-length variant of IP10.1; also called IP10.54-g1f
B11: IP10.52 (antibody, human IgG1, kappa, V domains shown)
VH: B1 VH with A23T, E31D, F53Y, A54G, N104S, I105V
VL: not shown
notes: IgG1 full-length variant of IP10.1; also called IP10.52-g1f
B12: IP10.1 (antibody, human IgG1, kappa, V domains shown)
VH: QMQLVESGGGVVQPGRSLRLSCTASGFTFSNNGMHWVRQAPGKGLEWVAVIWFDGMNKFYVDSVKGRFTISRDNSKNTLYLEMNSLRAEDTAIYYCAREGDGSGIYYYYGMDVWGQGTTVTVSS
VL: not shown
notes: Human IgG1 (g1f) full-length antibody; Parent antibody of all variants; also called 6A5; antibody 6A5

Columns and labels:
human IP-10 [1] = biological target: T1, human IP-10; assay: Biacore SPR, huIP-10
human IP-10 [2] = biological target: T1, human IP-10; assay: Biacore SPR, huIP-10 (text: limit of detection with the Biacore is 90 pM)
human IP-10 [3] = biological target: T1, human IP-10; assay: SPR (Biacore) at 37 C, IgG1, human IP-10
human IP-10 [4] = biological target: T1, human IP-10; assay: Biacore-based binding studies
mouse IP-10 = biological target: T2, mouse IP-10; assay: Biacore-based binding studies
human MIG [5] = biological target: T3, human MIG; assay: Biacore SPR, MIG; Biacore, lot 3007: weak measured KD for MIG, about 17000 times weaker than for huIP-10 (0.01 nM)
human IP-10 [6] = biological target: T1, human IP-10; assay: Biacore kinetic analysis
cynomolgus monkey IP-10 [7] = biological target: T4, cynomolgus monkey IP-10; assay: Biacore SPR, cynoIP-10
cynomolgus monkey IP-10 [8] = biological target: T4, cynomolgus monkey IP-10; assay: in vivo Kd estimated by PK/PD modeling in cynomolgus monkeys
human ITAC = biological target: T5, human ITAC; assay: Biacore SPR
cynomolgus monkey IP-10 [9] = biological target: T4, cynomolgus monkey IP-10; assay: cell-based or functional assay
human IP-10 [10] = biological target: T1, human IP-10; assay: cell-based or functional assay
cynomolgus monkey IP-10 [11] = biological target: T4, cynomolgus monkey IP-10; assay: cell-based or functional assay; remark: listed apart in the source
human IP-10 [12] = biological target: T1, human IP-10; assay: whole cell binding assays with I125-IP-10 (CXCR3/300.19 and KM12SM cells)
cynomolgus monkey IP-10 [13] = biological target: T4, cynomolgus monkey IP-10; assay: in vivo Kd estimated by PK/PD modeling of free drug, free and total serum IP-10 in cynomolgus monkeys; in vivo Kd from PK/PD modeling in cynomolgus monkeys, not a direct binding assay
human MIG [14] = biological target: T3, human MIG; assay: Biacore SPR, MIG
human MIG [15] = biological target: T3, human MIG; assay: Biacore SPR
human IP-10 [16] = biological target: T1, human IP-10; assay: SPR (Biacore) at 37 C, IgG1, human IP-10 (second row for IP10.1g1f)

| Binder | koff (human IP-10 [1]) [s⁻¹] | kon (human IP-10 [1]) [M⁻¹ s⁻¹] | Kd (human IP-10 [3]) [nM] | koff (human IP-10 [3]) [s⁻¹] | kon (human IP-10 [3]) [M⁻¹ s⁻¹] | Kd (cynomolgus monkey IP-10 [7]) [nM] | binding result (human ITAC) | further results |
| --- | --- | --- | --- | --- | --- | --- | --- | --- |
| B1 | 1e-07 | 11600 | 0.17 | 4e-06 | 26200 | 0.2 | no binding | Kd (human IP-10 [2]): 0.01 nM; fold improvement of KD against IP10.1 (human IP-10 [4]): ≥ 50 fold; binding result (mouse IP-10): no binding; Kd (human MIG [5]): 168 nM; estimated t1/2 (half-life of IP-10 association) (human IP-10 [6]): > 100 h; fold more potent than IP10.1 (in vivo Kd) (cynomolgus monkey IP-10 [8]): ~150 fold; IC50 (read off the curve) (cynomolgus monkey IP-10 [9]): ~0.3 nM; fold better potency than IP10.1, IL-6 secretion by hPBMCs (human IP-10 [10]): ~6 fold; fold greater potency relative to IP10.1, IL-12p40 secretion by hPBMCs (human IP-10 [10]): 4 fold; IC50 of free serum IP-10 suppression against free drug concentration in cynomolgus monkeys (cynomolgus monkey IP-10 [11]): 0.223 nM; fold better potency than IP10.1 in blocking IP-10 binding to cells (human IP-10 [12]): ≥ 5 fold; Kd (cynomolgus monkey IP-10 [13]): 0.043 nM |
| B2 | 1e-06 | 9600 | 0.12 | 2e-06 | 13500 | 0.19 | no binding | Kd (human IP-10 [1]): 0.11 nM; Kd (human MIG [14]): 77.5 nM |
| B3 | – | – | 0.41 | 6e-06 | 14700 | – | – | – |
| B4 | – | – | – | – | – | 4.74 | no binding | binding result (human MIG [15]): no binding |
| B5 | – | – | 0.56 | 1.4e-05 | 24000 | – | – | – |
| B6 | – | – | 0.34 | 5e-06 | 14100 | – | – | – |
| B7 | – | – | 1.64 | 1.7e-05 | 9300 | – | – | – |
| B8 | – | – | – | – | – | 0.22 | no binding | Kd (human MIG [14]): 54.3 nM |
| B9 | – | – | 0.96 | – | – | – | – | – |
| B10 | – | – | 0.25 | 4e-06 | 15400 | – | – | – |
| B11 | 5e-07 | 13000 | – | – | – | 1.43 | no binding | Kd (human IP-10 [1]): 0.04 nM; Kd (human MIG [14]): 73.5 nM |
| B12 | 6.8e-05 | 8000 | 4.18 | 0.000151 | 36200 | 14.9 | no binding | Kd (human IP-10 [1]): 8.53 nM; Kd (human IP-10 [4]): ~5 nM; binding result (mouse IP-10): no binding; estimated t1/2 (half-life of IP-10 association) (human IP-10 [6]): ~3 h; Kd (human IP-10 [16]): 6.27 nM; koff (human IP-10 [16]): 0.000138 s⁻¹; kon (human IP-10 [16]): 22000 M⁻¹ s⁻¹; binding result (human MIG [15]): no binding; Kd (cynomolgus monkey IP-10 [13]): 6.5 nM |

Reference: patent US20170158757A1 (Bristol-Myers Squibb, published 2017)
